The chains are these.
B1: Pistol ribozyme (parent)
chain: GGGUCGUUGUUCCAUAAUCGCGUGGAUAUGGCACGCAAGUUUCUACCGGGCACCGUAAAUGUCCGACUGGAGCCGUUCGGGCGGCUAUAAACAGACCUCAGGCCCGAAGCGUGGCGGCACCUGCCGCCGGUGGUAAAAAAGAUCGGAAGAGCACACGUCU

In the data set the parent is B1. Description: aptazyme ON/OFF ratio, guanine; higher = stronger switching; co-transcriptional cleavage with and without guanine.
As for U7A U8C G9A U10G U11C C12U C13A, the “aptazyme ON/OFF ratio” value is 1.16.

On to U7A G9A U11A C13A, for which the “aptazyme ON/OFF ratio” value stood at 1.17.

With U7G G9C U10A U11G C12A C13A, the “aptazyme ON/OFF ratio” value turned out to be 1.07.

As to U7C U8G G9A U10A U11C C12A C13A, the “aptazyme ON/OFF ratio” value came out at 1.15.

In the case of U7A U8C G9A C12U C13G, the “aptazyme ON/OFF ratio” value is 1.09.

Take U7G U8A G9U U10G U11G C12U C13G: the “aptazyme ON/OFF ratio” value amounted to 1.06.

Regarding U7A U8A G9A U10C U11G C12U C13U, the “aptazyme ON/OFF ratio” value is 1.13.

On to U7G U8A G9A U10A U11C C12G, for which the “aptazyme ON/OFF ratio” value is 1.07.

In the case of U7C U8A C12A C13U, the “aptazyme ON/OFF ratio” value was 1.39.

For the variant U8G U10C U11C C12U C13G, the “aptazyme ON/OFF ratio” value was 1.27.

Turning to U8A G9U U10G U11C C12G C13A, the “aptazyme ON/OFF ratio” value amounted to 1.08.

Consider U7A U8C G9C U10A C12A C13G, for which the “aptazyme ON/OFF ratio” value is 1.08.

As for U7G G9A U10C U11A C12G, the “aptazyme ON/OFF ratio” value stood at 1.15.

As for U7A U8A G9C U10A C12A C13U, the “aptazyme ON/OFF ratio” value was 1.18.

For the variant U7G U10A U11C C12G C13A, the “aptazyme ON/OFF ratio” value came to 1.1.

U8C G9C U11G C13U: the “aptazyme ON/OFF ratio” value amounted to 1.1.

As to U7G U8G G9A U10A U11G C12A, the “aptazyme ON/OFF ratio” value came to 1.07.

Take U7A G9U U10A U11G C12A C13U: the “aptazyme ON/OFF ratio” value was 1.1.

With U7G G9C U10C U11G C13U, the “aptazyme ON/OFF ratio” value came out at 1.27.

U8A G9U U10C U11A C12A C13G: the “aptazyme ON/OFF ratio” value is 1.12.

With U7A U8C G9U U10C U11C C12U C13G, the “aptazyme ON/OFF ratio” value worked out at 1.08.

Turning to U7A U8A G9C U10C U11G, the “aptazyme ON/OFF ratio” value is 0.815.

Turning to U7C U8G G9U U10G U11C C12A C13A, the “aptazyme ON/OFF ratio” value amounted to 1.11.

In the case of U7G U8G U10A C12G C13A, the “aptazyme ON/OFF ratio” value is 1.16.

Take U7C U8A G9A U10A U11C C12G C13U: the “aptazyme ON/OFF ratio” value turned out to be 1.18.

For U7A U8C G9A U10C U11A C12G C13U, the “aptazyme ON/OFF ratio” value was 1.09.

In the case of U7A U8A G9A U11A C12A C13G, the “aptazyme ON/OFF ratio” value turned out to be 1.21.

With U7A G9U U11C C12G C13U, the “aptazyme ON/OFF ratio” value is 1.12.

For U7C U8A G9U U10G U11C C12U, the “aptazyme ON/OFF ratio” value is 1.07.

On to U8G G9U U10A U11A C12G C13U, for which the “aptazyme ON/OFF ratio” value was 1.22.

Regarding U7G U8C G9C U11A C12A, the “aptazyme ON/OFF ratio” value came to 1.19.

Regarding U7C U8C U10C U11A C12U C13G, the “aptazyme ON/OFF ratio” value is 1.25.

For the variant U7C U8G G9C U10C U11G C12G C13G, the “aptazyme ON/OFF ratio” value worked out at 1.09.

With U7C U8C G9A U10C C12U C13G, the “aptazyme ON/OFF ratio” value stood at 1.26.

Turning to U7G G9U U10A U11A C12G C13G, the “aptazyme ON/OFF ratio” value was 1.11.

Take U7G U8G U11G C12A C13G: the “aptazyme ON/OFF ratio” value worked out at 1.21.

As for U7G G9A U10G U11G C12G C13U, the “aptazyme ON/OFF ratio” value was found to be 1.16.

In the case of U8A G9C U11C, the “aptazyme ON/OFF ratio” value was 1.03.

Take G9C U10C U11C C12U C13U: the “aptazyme ON/OFF ratio” value turned out to be 1.03.

In the case of U7A U8G U10C U11C C12A C13A, the “aptazyme ON/OFF ratio” value was 1.61.

With U7G U8C U10A U11G C12G, the “aptazyme ON/OFF ratio” value stood at 1.19.

Turning to U8A G9C U10G U11A C12G C13A, the “aptazyme ON/OFF ratio” value is 1.26.

Turning to U7C U8G U10C U11C C12U C13A, the “aptazyme ON/OFF ratio” value came out at 1.04.

In the case of U7G U8G G9U U10A U11C C12A C13A, the “aptazyme ON/OFF ratio” value came out at 1.1.

As for U7A U8A G9C U10G C12U C13G, the “aptazyme ON/OFF ratio” value was found to be 1.19.

For the variant U7G U8G U10A U11C C12A C13U, the “aptazyme ON/OFF ratio” value stood at 1.47.

As for U7C G9C U10G U11A C12A C13U, the “aptazyme ON/OFF ratio” value was found to be 1.4.

In the case of U8G G9C U10G U11C C12A C13A, the “aptazyme ON/OFF ratio” value was determined as 1.04.

For the variant U7A U8G G9C U11G C12G, the “aptazyme ON/OFF ratio” value is 1.66.

In the case of U7C G9U U10G C13G, the “aptazyme ON/OFF ratio” value was found to be 1.06.

For the variant U8A U11C C13U, the “aptazyme ON/OFF ratio” value was 1.09.

For U7G U10C C12G C13A, the “aptazyme ON/OFF ratio” value was 1.09.

Consider U7G G9A U11G C12G C13G, for which the “aptazyme ON/OFF ratio” value is 1.07.

As to U7G U8A U10A C12A, the “aptazyme ON/OFF ratio” value was 1.26.

On to U8G G9U U10G U11C C13G, for which the “aptazyme ON/OFF ratio” value is 1.04.

For U7G U8G U10G U11C C12A C13A, the “aptazyme ON/OFF ratio” value stood at 1.53.

Turning to U7C U10A U11A C12A C13G, the “aptazyme ON/OFF ratio” value was 1.11.

In the case of U8A U10G U11G C12A C13U, the “aptazyme ON/OFF ratio” value worked out at 1.44.

G9C C13U: the “aptazyme ON/OFF ratio” value amounted to 1.07.

Turning to U7G U8C G9C U10G U11G C12U C13U, the “aptazyme ON/OFF ratio” value stood at 1.12.

As for U8A G9A C12G C13A, the “aptazyme ON/OFF ratio” value was 1.36.

As for U7A U8C G9U U10C U11G C12G C13G, the “aptazyme ON/OFF ratio” value amounted to 1.11.

Regarding U7C U8C G9C U10G C12A C13G, the “aptazyme ON/OFF ratio” value turned out to be 1.06.

As to U7C U8G U11A C12U, the “aptazyme ON/OFF ratio” value is 1.15.

With U8C G9U U10A U11A C12A C13A, the “aptazyme ON/OFF ratio” value came to 1.28.

As for U7G U8A G9C U10G C13G, the “aptazyme ON/OFF ratio” value was found to be 1.09.

As for U7G U8A G9A U10A C13A, the “aptazyme ON/OFF ratio” value is 1.19.

As for U7G U8A G9U U10A C13U, the “aptazyme ON/OFF ratio” value worked out at 1.02.

In the case of U7C U8G U10G C12A, the “aptazyme ON/OFF ratio” value was 1.21.

On to U7G U8C U10G U11C C12U, for which the “aptazyme ON/OFF ratio” value stood at 1.34.

As to U8G G9U U11C C12A C13A, the “aptazyme ON/OFF ratio” value is 1.09.

Regarding U7C G9U U11C C13U, the “aptazyme ON/OFF ratio” value amounted to 1.05.

Turning to U7G U8G G9U U11A C12G C13U, the “aptazyme ON/OFF ratio” value turned out to be 1.16.

Take U7A G9C U10G U11A C12A: the “aptazyme ON/OFF ratio” value stood at 1.1.

With U7C U8A G9A U10A U11G C12G C13G, the “aptazyme ON/OFF ratio” value was found to be 1.28.

For the variant U7C U8C G9U U10A U11C C12U C13G, the “aptazyme ON/OFF ratio” value was found to be 1.14.

Turning to G9C U11G C12A, the “aptazyme ON/OFF ratio” value was 1.11.

For U7G U8C U10A U11G C12A C13A, the “aptazyme ON/OFF ratio” value was 1.08.

Regarding U7C U8A U10G U11A C12U C13G, the “aptazyme ON/OFF ratio” value turned out to be 1.24.

Consider U7G G9A U10G C12A C13U, for which the “aptazyme ON/OFF ratio” value came out at 1.08.

For U7C U8A G9A U10G U11A C13G, the “aptazyme ON/OFF ratio” value was 1.05.

As for U7A G9A U10G U11G C12U C13A, the “aptazyme ON/OFF ratio” value stood at 1.17.

Regarding G9C U10C U11C C12G C13G, the “aptazyme ON/OFF ratio” value turned out to be 1.05.

The values are drawn from the RNAGym collection of RNA variant scans (doi:10.1021/acssynbio.7b00057).
